These results are taken from paper PMC10377357 (2023).

Sequences and labels used below:
B1: Rps2(1–145)-TurboID [S. cerevisiae] / Pse1 [S. cerevisiae (endogenous in the yeast strains)] (parent complex)
chain 1: MSAPEAQQQKRGGFGGRNRGRPNRRGPRNTEEKGWVPVTKLGRLVKAGKITTIEEIFLHSLPVKEFQIIDTLLPGLQDEVMNIKPVQKQTRAGQRTRFKAVVVVGDSNGHVGLGIKTAKEVAGAIRAGIIIAKLSVIPIRRGYWG
chain 2: MSALPEEVNRTLLQIVQAFASPDNQIRSVAEKALSEEWITENNIEYLLTFLAEQAAFSQDTTVAALSAVLFRKLALKAPPSSKLMIMSKNITHIRKEVLAQIRSSLLKGFLSERADSIRHKLSDAIAECVQDDLPAWPELLQALIESLKSGNPNFRESSFRILTTVPYLITAVDINSILPIFQSGFTDASDNVKIAAVTAFVGYFKQLPKSEWSKLGILLPSLLNSLPRFLDDGKDDALASVFESLIELVELAPKLFKDMFDQIIQFTDMVIKNKDLEPPARTTALELLTVFSENAPQMCKSNQNYGQTLVMVTLIMMTEVSIDDDDAAEWIESDDTDDEEEVTYDHARQALDRVALKLGGEYLAAPLFQYLQQMITSTEWRERFAAMMALSSAAEGCADVLIGEIPKILDMVIPLINDPHPRVQYGCCNVLGQISTDFSPFIQRTAHDRILPALISKLTSECTSRVQTHAAAALVNFSEFASKDILEPYLDSLLTNLLVLLQSNKLYVQEQALTTIAFIAEAAKNKFIKYYDTLMPLLLNVLKVNNKDNSVLKGKCMECATLIGFAVGKEKFHEHSQELISILVALQNSDIDEDDALRSYLEQSWSRICRILGDDFVPLLPIVIPPLLITAKATQDVGLIEEEEAANFQQYPDWDVVQVQGKHIAIHTSVLDDKVSAMELLQSYATLLRGQFAVYVKEVMEEIALPSLDFYLHDGVRAAGATLIPILLSCLLAATGTQNEELVLLWHKASSKLIGGLMSEPMPEITQVYHNSLVNGIKVMGDNCLSEDQLAAFTKGVSANLTDTYERMQDRHGDGDEYNENIDEEEDFTDEDLLDEINKSIAAVLKTTNGHYLKNLENIWPMINTFLLDNEPILVIFALVVIGDLIQYGGEQTASMKNAFIPKVTECLISPDARIRQAASYIIGVCAQYAPSTYADVCIPTLDTLVQIVDFPGSKLEENRSSTENASAAIAKILYAYNSNIPNVDTYTANWFKTLPTITDKEAASFNYQFLSQLIENNSPIVCAQSNISAVVDSVIQALNERSLTEREGQTVISSVKKLLGFLPSSDAMAIFNRYPADIMEKVHKWFA
B2: Rps2(76–145)-TurboID [S. cerevisiae] / Pse1 [S. cerevisiae (endogenous in the yeast strains)] (parent complex)
chain 1: LQDEVMNIKPVQKQTRAGQRTRFKAVVVVGDSNGHVGLGIKTAKEVAGAIRAGIIIAKLSVIPIRRGYWG
chain 2: B1 chain 2
B3: Rps2(1–145)-TurboID [S. cerevisiae] / Tsr4 [S. cerevisiae (endogenous in YDK11-5A)] (parent complex)
chain 1: B1 chain 1
chain 2: MSKIEELPPSDTDDHSYSSKPGDVFLAFVDAPVKETDDILVEDSFIGGEPKWLHPDSEPPAELLKCGACKSADNMKLLLQAFSPLDDEQMSAIQQRLGINNMSYINPQDDRVLYVFLCTECQRKGNSVRCIRGVKKNKNVDSLSEKMASTSLEKDFQINPFDLSNNSDSKCNAFSSNPFGGANANPFGADSINSNISQSKDEGKKKESATVSAKTARKLHDLQKDKEYDGNKCFKSCLLYVEEETFKNKKPAHLQLPKNLKIDKEALDLTGDEDLEKDPIKLDPRTEKLSKFLDDDTFQKFQEVVGYNPLQVLRYDLGGKPLLYAETKVDILSTVPRPGYNPSSQRIFEMQLMPKMIFDLEEVVSVDNGMEWGTILVFTDVENYMPEFDEHGVGYVEECVKVQWESRT

The first assay covers variants of B1. As to the kind of experiment: TurboID-based proximity labeling; parent: 2; read off a plot.
As for chain 1 R95A, chain 1 R97A, chain 1 K99A, the enrichment was ~0.9 log2 fold change vs controls.

In a further assay the parent is B1. As to the kind of experiment: TurboID-based proximity labeling; parent: 30; read off a plot.
In the case of chain 1 R95A, chain 1 R97A, chain 1 K99A, the response was roughly 26 normalized iBAQ.

The variants in another assay derive from B2. As to the kind of experiment: TurboID-based proximity labeling; baits expressed from plasmid under the copper-inducible CUP1 promoter; parent: 3.1; read off a plot.
Turning to chain 1 R20A, chain 1 R22A, chain 1 K24A, the enrichment is ~-0.4 log2 fold change vs controls.

The variants in a further assay derive from B2. As to the kind of experiment: TurboID-based proximity labeling; baits expressed from plasmid under the copper-inducible CUP1 promoter; parent: 100; read off a plot.
Turning to chain 1 R20A, chain 1 R22A, chain 1 K24A, the response is roughly 9 normalized iBAQ.

The variants in another assay derive from B3. As to the kind of experiment: TurboID-based proximity labeling; parent: 5.9; read off a plot.
Take chain 1 R95A, chain 1 R97A, chain 1 K99A: the enrichment is ~5.9 log2 fold change vs controls.

In a further assay the parent is B3. As to the kind of experiment: TurboID-based proximity labeling; parent: 210; read off a plot.
chain 1 R95A, chain 1 R97A, chain 1 K99A: the response is roughly 260 normalized iBAQ.
